The values below come from patent publication US20160333110A1 (CHIOME BIOSCIENCE, published 2016).

Assay [1] has as its target T1, recombinant protein of the hTROP-2 extracellular region (human, UniProt P09758 27-263).
T1 construct: produced with baculovirus, purified on Ni Sepharose; also called hTROP-2 EC; hTROP-2-EC-His; not shown: C-terminal myc-His tag from pcDNA4/myc-His A
T1 sequence: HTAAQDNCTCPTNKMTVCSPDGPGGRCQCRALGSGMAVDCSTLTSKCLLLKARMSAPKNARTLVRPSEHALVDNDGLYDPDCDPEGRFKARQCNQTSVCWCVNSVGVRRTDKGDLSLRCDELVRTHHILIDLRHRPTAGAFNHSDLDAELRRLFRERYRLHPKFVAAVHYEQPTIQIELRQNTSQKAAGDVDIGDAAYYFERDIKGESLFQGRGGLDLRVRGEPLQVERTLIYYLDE
The assay can be described thus: antigen-coated ELISA, plate coated with 0.5 µg/ml hTROP-2 extracellular region. The procedure:
(§1) Furthermore, antigen affinity was also examined by an ELISA method. ELISA was carried out using an ELISA plate which was coated with the recombinant protein of the hTROP-2 extracellular region as described in Example 3. Specifically, a 96-well plate (BD FALCON) was coated with a 50 μl/well recombinant protein of a hTROP-2 extracellular region that had been diluted with PBS to 0.5 μg/ml (at 4° C. overnight). Thereafter, the resultant was washed with a washing buffer (PBS containing 0.05% Tween 20), and a blocking buffer (PBS containing 2% skim milk and 0.05% Tween 20) was then added thereto (200 μl/well) to block it (at room temperature for 1 hour). The resultant was washed with a washing buffer. […] The obtained dilution samples were each added in an amount of 50 μl/well to the above-described ELISA plate (at room temperature for 2 hours). […] After the mixture had been washed with a washing buffer, a TMB (3,3′,5,5′-tetramethylbenzidine: SIGMA) substrate solution was added (50 μl/well) to the resultant to carry out a color reaction. Then, 1 M sulfuric acid (25 μl/well) was added to the reaction product to terminate the reaction. Using Microplate reader Model 550 (BioRad), an absorbance at 450 nm was measured with an absorbance at 655 nm used as a reference.
For orientation: ELISA stands for enzyme-linked immunosorbent assay.

In assay [2] the target is T2, recombinant hTACSTD2-Fc-His protein (Creative BioMart) (human, UniProt P09758 27-274, limits assumed).
T2 construct: bought protein; also called hTROP-2 (low-density antigen-coated ELISA); not shown: Fc part of the bought fusion protein; not described; His tag
T2 sequence: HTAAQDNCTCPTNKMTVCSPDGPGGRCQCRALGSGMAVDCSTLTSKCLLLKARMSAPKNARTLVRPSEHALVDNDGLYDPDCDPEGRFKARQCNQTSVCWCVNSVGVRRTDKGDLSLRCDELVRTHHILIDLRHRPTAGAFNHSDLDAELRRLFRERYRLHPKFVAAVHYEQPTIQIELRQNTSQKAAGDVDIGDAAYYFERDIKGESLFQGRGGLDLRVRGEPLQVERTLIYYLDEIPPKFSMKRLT
The assay is described as follows: low-density antigen-coated ELISA, plate coated with 0.1 µg/mL hTACSTD2-Fc-His. The procedure: as §1, with “Specifically, a 96-well plate (BD FALCON) was coated with a 50 μl/well recombinant protein of a hTROP-2 extracellular region that had been diluted with PBS to 0.5 μg/ml (at 4° C. overnight).” left out

Assay [3] has as its target T3, human TROP-2 (hTROP-2) endogenously expressed on the cell surface of human cancer cell lines (human, UniProt P09758 27-323).
T3 construct: also called TACSTD2; PK-59 cells
T3 sequence: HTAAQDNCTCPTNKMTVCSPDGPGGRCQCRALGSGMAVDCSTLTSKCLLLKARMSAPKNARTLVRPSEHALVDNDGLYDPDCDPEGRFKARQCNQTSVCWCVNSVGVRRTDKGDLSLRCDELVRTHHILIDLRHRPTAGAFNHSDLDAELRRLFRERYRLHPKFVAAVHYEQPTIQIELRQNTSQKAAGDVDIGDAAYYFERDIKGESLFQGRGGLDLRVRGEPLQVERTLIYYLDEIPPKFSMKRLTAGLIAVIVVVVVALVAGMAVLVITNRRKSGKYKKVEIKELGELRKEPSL
The assay is described as follows: FACS on PK-59 cells, 0.1 µg antibody. The procedure:
(§2) Cancer cells were removed from a culture dish by a trypsin treatment, and a cell suspension was then prepared (cell density: 2×10⁶ cells/mL). An anti-hTROP-2 monoclonal antibody (0.1 μg) was added to 100 μL of the cell suspension, and they were then reacted at 4° C. for 20 minutes. The reaction solution was washed with PBS, and it was then reacted with PE-labeled anti-mouse IgG (BD Biosciences Pharmingen) (0.1 μg) (at 4° C. for 30 minutes). Thereafter, the resultant was analyzed by FACSCalibur (Becton, Dickinson and Company).
(§3) Subsequently, the reactivity of the generated anti-hTROP-2 monoclonal antibodies with human cancer cell lines (in which an hTROP-2 protein was endogenously expressed on the cell surface) was examined by FACS analysis.

The target in assay [4] is T3, human TROP-2 (hTROP-2) endogenously …. The assay can be described thus: FACS on BxPC-3 cells, 0.1 µg antibody. The procedure:
as §2, §3

Assay [5] addresses T4, mouse TROP-2 protein transiently expressed in CHO-K1 cells (mouse, UniProt Q8BGV3 25-317).
T4 construct: whole, on cells
T4 sequence (looked up): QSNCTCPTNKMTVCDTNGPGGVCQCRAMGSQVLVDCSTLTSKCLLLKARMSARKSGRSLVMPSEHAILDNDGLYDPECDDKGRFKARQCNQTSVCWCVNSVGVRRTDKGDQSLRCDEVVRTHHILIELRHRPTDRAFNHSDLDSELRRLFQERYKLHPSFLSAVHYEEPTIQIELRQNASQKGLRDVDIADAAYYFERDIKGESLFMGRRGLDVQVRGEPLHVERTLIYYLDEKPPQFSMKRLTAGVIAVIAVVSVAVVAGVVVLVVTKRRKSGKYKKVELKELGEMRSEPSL
The assay is described as follows: FACS on CHO-K1 cells transiently expressing mouse TROP-2. An excerpt: (§4) Specifically, each of an expression vector (mouse TROP-2-pcDNA3.1(+), furnished by the Institute of Molecular and Cellular Biosciences, the University of Tokyo) comprising the full-length cDNA of a mouse TROP-2 gene (GenBank accession No. NM_020047, Y08830), and an expression vector (pcDNA3.1-hEpCAM-myc/His) comprising the full-length cDNA of a human TROP-1/EpCAM gene (GenBank accession No. NM_002354), was transiently introduced into CHO-K1 cells, using Lipofectamine2000 reagent (Invitrogen). Thereafter, 24 to 48 hours later, the cells were removed from a culture dish by treating them with trypsin, and a cell suspension was then prepared. The thus prepared cell suspension was successively reacted with the produced anti-hTROP-2 monoclonal antibody (0.1 μg) and with PE-labeled anti-mouse IgG, and it was then analyzed by FACSCalibur.

Assay [6] has as its target T5, human TROP-1/EpCAM protein transiently expressed in CHO-K1 cells (human, UniProt P16422 24-314).
T5 construct: whole, on cells; also called human EpCAM/TROP-1; hEpCAM; not shown: C-terminal myc/His tag from pcDNA3.1-hEpCAM-myc/His
T5 sequence (looked up): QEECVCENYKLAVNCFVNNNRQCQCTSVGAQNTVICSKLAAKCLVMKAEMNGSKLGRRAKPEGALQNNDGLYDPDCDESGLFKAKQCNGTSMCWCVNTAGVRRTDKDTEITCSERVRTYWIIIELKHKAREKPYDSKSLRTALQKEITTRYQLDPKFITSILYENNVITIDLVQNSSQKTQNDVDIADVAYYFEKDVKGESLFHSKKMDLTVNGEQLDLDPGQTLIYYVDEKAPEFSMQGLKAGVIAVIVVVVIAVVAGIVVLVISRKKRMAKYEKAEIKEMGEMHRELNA
The assay is described as follows: FACS on CHO-K1 cells transiently expressing human EpCAM/TROP-1.
Text: as §4

The target of assay [7] is T1, recombinant protein of the hTROP-2 …. The assay is described as follows: monovalent ELISA: antibody captured by anti-human IgG Fc, hTROP-2 EC titrated in solution, detected with anti-His. The procedure: Thereafter, coating was carried out at 4° C. overnight. Thereafter, the reaction product was washed with a washing buffer (PBS containing 0.05% Tween 20), and a blocking buffer (PBS containing 2% skim milk and 0.05% Tween 20) was then added thereto (200 μL/well) to block it (at room temperature for 1 hour). The resultant was washed with a washing buffer. […] The mixture was left at rest at room temperature for 1 hour, and the reaction product was then washed with a washing buffer. The recombinant protein of the hTROP-2 extracellular region described in Example 3 (hTROP-2 EC) was diluted with an ELISA buffer to prepare samples with a concentration range from 5 μg/mL to a series of three-fold dilutions (10 samples). The thus obtained sample was added in each amount of 50 μL/well to the plate. The mixture was left at rest at room temperature for 1 hour, and the reaction product was then washed with a washing buffer. […] The obtained mixture was left at rest at room temperature for 1 hour, and it was then washed with a washing buffer. […] The obtained mixture was left at rest at room temperature for 1 hour, and it was then washed with a washing buffer. […] Using Microplate reader Model 550 (BioRad), an absorbance at 450 nm was measured with an absorbance at 655 nm used as a reference.

The target in assay [8] is T2, recombinant hTACSTD2-Fc-His protein …. The assay can be described thus: low-density antigen-coated ELISA, plate coated with 0.1 µg/mL hTACSTD2-Fc-His, purified antibodies; HuK5-70 (humanized antibody); low-density ELISA, 0.1 µg/mL hTROP-2 coat.

Residue numbers refer to the chain shown, from its start.

B1: humanized T6-16 antibody HuT6-16-1 (antibody, V domains shown)
VH: QVQLVQSGAEVKKPGASVKVSCKASGYTFTDYNMHWVRQAPGQGLEWIGYIYPYNGGTGYNQRFKSRATMTVDKSTSTAYMELRSLRSDDTAVYYCAREDYGSSPSYAMDYWGQGTMVTVSS
VL: DIVMTQSPLSLPVTPGEPASISCRSSQSLVHGNGNTYLHWYLQKPGQSPQLLIYKVSNRFSGVPDRFSGSGSGTDFTLKISRVEAEDVGVYYCSQTTHVPTFGGGTKVEIK
notes: HuT6-16 VH1 with HuT6-16 VL; also called HuT6-16-1 antibody
What is called EC50 is the concentration at which the effect is half-maximal. Turning to B1, the EC50 in assay [1] amounted to 0.027 µg/mL.

B2: humanized T6-16 antibody HuT6-16-2 (antibody, V domains shown)
VH: B1 VH with K74T
VL: B1 VL
notes: HuT6-16 VH2 with HuT6-16 VL; also called HuT6-16-2 antibody
B2: the EC50 in assay [2] came to 0.049 µg/mL; in assay [1] it was 0.027 µg/mL.

B3: anti-hTROP-2 monoclonal antibody clone K5-116-2-1 (antibody, mouse IgG2a, V domains shown)
VH: QVQLQQPGAELVRPGASVKLSCKASGYTFTSYWITWVKQRPGQGLEWIGNIYPSDSYTNYNQKFRDKATLTVDKSSSTAYMQLSSPTSEDSAVYYCSALFDYWGQGTTLTVSS
VL: DILLTQSPAILSVSPGERVSFSCRASQSIGTSIHWYQQRTNGSPRLLIKYASESISGIPSRFSGSGSGTDFILSINSVESEDIADYYCQQSNSWPFTFGSGTKLEIK
notes: mouse IgG2a, hybridoma FERM BP-11253
On to B3, for which the entries for the “mean fluorescence intensity, times that with PE-labeled anti-mouse IgG alone” value in assay [3] and in assay [4] were 122 times and 121 times, respectively. Besides, the binding result in assay [5] and in assay [6] was “no binding (tested: 0.1 µg antibody)” in each case.

B4: anti-hTROP-2 monoclonal antibody clone K5-107 (antibody, mouse IgG1, V domains shown)
VH: QVQLQQPGSELVRPGASVKLSCKASGYTFTSYWMHWVKQRHGQGLEWIGNIYPGGGYTNYDEKFKSKGTLTVDTSSSTAYMHLSSLTSEDSAVYYCTRSSVFDYWGQGTTLTVSS
VL: B3 VL with S28N, Y36F, I72T
notes: mouse IgG1, hybridoma FERM BP-11252
Turning to B4, the binding result in assay [5] and in assay [6] was “no binding (tested: 0.1 µg antibody)” each time.

B5: humanized K5-70 antibody (HuK5-70) (antibody, V domains shown)
VH: QVQLVQSGAEVKKPGASVKVSCKASGYTFTIYWINWVRQAPGQRLEWIGNIYPSDSYTNYNQKFKDKATLTVDTSASTAYMELSSLRSEDTAVYYCTRTSMADYWGQGTLVTVSS
VL: EIVLTQSPATLSLSPGERATLSCRASQSIGTSIHWYQQKPGQAPRLLIKYASESISGIPARFSGSGSGTDFTLTISSLEPEDFAVYYCQQSNSWPFTFGQGTKVEIK
notes: human IgG1 / human kappa constant regions from the vectors pFUSE-CHIg-hG1 and pFUSE2-CLIg-hk; also called HuK5-70 antibody
For the molecule B5, the EC50 in assay [2] was determined as 0.222 µg/mL; in assay [1] it was 0.022 µg/mL; in assay [7] it was 0.006 µg/mL; in assay [8] it was 0.0334 µg/mL. Also, the “EC50 relative to that of the K5-70 antibody” value in assay [2] is approximately 20 times.
